How the values were obtained:
Assay in all cases: cleavage_in_vitro
[1] = test system: T1, OMNI-35 (Bartonella apis); conditions: TXTL; PAM NRR; V1, V2 tested
T1 sequence: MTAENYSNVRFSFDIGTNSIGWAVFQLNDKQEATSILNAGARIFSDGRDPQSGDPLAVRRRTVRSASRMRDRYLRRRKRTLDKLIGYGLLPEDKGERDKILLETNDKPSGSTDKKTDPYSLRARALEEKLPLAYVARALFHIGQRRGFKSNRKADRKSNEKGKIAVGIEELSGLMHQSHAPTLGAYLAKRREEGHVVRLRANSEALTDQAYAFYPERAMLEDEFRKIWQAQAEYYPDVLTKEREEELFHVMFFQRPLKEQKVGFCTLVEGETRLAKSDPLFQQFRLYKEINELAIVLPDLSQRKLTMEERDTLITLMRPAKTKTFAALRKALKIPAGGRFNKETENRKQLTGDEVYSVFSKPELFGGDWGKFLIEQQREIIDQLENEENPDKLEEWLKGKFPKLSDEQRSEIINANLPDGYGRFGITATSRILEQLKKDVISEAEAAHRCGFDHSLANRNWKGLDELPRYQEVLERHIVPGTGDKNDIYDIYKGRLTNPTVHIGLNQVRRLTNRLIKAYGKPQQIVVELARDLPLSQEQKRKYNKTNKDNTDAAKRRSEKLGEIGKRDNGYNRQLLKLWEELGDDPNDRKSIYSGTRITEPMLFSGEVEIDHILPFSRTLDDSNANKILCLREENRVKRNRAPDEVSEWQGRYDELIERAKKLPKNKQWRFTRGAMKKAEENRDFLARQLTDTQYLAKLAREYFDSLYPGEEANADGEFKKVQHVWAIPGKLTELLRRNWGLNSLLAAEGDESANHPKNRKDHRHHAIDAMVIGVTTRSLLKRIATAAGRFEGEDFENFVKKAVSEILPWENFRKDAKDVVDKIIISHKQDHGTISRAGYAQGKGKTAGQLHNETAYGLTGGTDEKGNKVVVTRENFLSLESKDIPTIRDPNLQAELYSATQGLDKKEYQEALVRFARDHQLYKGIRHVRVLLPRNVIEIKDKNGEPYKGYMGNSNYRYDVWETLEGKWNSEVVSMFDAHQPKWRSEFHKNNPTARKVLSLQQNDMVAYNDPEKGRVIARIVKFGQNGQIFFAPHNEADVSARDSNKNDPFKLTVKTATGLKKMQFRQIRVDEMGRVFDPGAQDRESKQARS

[2] = test system: T2, OMNI-34 (Alistipes sp. An54); conditions: TXTL; PAM NRNNNNAA; sgRNA V1-V3 tested
T2 sequence: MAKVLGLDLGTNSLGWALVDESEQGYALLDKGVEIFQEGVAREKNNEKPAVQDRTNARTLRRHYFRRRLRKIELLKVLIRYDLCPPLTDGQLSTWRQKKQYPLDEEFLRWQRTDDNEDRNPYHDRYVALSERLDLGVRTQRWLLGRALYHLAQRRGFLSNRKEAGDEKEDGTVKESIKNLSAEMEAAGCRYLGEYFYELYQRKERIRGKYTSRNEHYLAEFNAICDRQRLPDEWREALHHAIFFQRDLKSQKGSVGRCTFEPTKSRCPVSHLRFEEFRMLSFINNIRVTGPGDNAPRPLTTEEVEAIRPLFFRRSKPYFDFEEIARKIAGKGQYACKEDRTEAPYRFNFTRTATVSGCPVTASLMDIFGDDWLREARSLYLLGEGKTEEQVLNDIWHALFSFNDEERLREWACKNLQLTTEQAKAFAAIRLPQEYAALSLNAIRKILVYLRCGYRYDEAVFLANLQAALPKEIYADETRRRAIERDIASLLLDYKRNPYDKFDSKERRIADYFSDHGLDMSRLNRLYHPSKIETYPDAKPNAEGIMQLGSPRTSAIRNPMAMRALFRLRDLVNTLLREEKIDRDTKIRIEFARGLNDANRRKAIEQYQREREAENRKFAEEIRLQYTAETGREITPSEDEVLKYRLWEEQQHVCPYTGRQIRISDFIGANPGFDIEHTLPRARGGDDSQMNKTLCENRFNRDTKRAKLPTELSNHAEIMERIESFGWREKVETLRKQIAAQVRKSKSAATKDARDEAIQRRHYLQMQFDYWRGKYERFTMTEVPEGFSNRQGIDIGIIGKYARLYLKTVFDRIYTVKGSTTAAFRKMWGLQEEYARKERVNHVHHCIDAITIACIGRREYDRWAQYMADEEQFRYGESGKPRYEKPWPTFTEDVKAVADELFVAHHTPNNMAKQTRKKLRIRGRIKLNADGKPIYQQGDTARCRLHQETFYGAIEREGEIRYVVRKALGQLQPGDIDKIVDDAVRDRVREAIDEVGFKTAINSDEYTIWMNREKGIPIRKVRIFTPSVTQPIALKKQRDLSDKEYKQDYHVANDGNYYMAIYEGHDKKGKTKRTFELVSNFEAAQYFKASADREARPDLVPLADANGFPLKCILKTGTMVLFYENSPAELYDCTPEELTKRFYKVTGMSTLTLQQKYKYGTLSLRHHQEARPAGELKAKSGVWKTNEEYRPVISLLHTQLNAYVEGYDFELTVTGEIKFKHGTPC

[3] = test system: T3, OMNI-52 (Butyrivibrio sp. NC3005); conditions: TXTL; PAM NRRADT
T3 sequence: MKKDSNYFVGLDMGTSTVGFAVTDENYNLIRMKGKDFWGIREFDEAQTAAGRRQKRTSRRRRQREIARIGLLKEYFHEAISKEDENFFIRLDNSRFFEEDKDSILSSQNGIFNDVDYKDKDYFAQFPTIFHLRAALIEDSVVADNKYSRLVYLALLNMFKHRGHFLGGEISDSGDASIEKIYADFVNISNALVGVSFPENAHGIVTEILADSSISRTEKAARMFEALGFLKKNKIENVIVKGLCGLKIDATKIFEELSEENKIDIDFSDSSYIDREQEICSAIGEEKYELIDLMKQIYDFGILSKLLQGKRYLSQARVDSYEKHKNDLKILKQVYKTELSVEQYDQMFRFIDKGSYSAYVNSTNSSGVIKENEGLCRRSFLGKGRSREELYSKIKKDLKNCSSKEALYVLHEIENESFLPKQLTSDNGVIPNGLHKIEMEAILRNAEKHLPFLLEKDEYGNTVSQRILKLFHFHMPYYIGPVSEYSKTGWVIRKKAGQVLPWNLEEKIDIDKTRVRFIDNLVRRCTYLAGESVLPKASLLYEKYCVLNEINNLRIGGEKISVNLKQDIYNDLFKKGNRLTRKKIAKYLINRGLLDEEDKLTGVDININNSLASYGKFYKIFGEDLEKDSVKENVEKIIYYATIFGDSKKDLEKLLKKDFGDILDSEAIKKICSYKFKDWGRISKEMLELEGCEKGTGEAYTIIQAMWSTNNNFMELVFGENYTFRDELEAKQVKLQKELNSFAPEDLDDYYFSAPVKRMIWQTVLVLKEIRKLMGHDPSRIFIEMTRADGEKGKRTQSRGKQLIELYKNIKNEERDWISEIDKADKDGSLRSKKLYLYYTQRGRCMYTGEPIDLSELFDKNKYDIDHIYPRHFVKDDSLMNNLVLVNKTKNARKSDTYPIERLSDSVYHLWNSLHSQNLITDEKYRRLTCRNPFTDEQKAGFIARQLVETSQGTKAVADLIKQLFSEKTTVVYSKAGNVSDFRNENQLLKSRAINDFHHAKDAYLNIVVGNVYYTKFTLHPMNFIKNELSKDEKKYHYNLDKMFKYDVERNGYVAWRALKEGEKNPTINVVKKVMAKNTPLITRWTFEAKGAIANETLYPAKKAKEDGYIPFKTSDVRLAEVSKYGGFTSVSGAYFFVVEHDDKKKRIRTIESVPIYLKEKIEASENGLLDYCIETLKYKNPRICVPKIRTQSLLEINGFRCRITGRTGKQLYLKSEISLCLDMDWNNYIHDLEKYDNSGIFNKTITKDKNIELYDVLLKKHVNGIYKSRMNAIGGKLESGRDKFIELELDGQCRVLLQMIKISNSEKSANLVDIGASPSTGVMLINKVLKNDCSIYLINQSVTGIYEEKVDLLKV

[4] = test system: T4, OMNI-51 (Bacteroides coagulans); conditions: TXTL; PAM NRRAAA
T4 sequence: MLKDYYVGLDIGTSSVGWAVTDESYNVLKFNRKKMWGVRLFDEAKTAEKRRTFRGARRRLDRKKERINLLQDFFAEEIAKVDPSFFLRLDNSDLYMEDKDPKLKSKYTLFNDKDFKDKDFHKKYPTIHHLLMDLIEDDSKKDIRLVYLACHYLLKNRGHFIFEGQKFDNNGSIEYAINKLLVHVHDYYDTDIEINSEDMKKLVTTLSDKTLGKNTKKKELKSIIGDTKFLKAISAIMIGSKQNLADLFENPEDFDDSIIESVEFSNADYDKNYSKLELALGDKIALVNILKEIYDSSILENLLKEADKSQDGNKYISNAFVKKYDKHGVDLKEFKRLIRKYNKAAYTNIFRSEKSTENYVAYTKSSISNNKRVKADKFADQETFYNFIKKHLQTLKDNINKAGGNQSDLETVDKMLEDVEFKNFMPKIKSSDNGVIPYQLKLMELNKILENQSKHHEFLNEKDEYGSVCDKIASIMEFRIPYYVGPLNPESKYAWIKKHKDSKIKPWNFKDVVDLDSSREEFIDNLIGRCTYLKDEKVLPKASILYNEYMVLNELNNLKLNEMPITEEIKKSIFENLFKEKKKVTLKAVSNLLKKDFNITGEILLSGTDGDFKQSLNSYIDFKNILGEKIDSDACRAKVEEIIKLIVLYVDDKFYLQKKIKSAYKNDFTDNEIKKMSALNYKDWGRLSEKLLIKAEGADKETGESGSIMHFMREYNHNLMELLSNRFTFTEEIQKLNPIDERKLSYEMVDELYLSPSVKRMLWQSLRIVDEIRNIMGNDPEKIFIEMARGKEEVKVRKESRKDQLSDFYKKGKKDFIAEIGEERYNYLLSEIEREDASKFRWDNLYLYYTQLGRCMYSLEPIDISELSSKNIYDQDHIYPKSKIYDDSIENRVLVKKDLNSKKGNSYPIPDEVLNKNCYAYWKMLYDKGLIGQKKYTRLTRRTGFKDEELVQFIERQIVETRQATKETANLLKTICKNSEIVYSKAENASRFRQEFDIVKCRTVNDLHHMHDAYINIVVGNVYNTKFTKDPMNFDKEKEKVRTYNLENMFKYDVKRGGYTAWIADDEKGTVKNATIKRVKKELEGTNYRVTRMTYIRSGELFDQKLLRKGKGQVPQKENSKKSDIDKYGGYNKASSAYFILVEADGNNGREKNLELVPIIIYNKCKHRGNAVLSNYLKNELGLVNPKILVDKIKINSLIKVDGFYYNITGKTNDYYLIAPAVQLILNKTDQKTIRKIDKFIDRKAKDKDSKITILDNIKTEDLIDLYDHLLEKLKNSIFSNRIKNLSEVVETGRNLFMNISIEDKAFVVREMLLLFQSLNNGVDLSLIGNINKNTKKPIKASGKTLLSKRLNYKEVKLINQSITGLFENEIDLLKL

In the case of “GGAAGAGCAGAGCCUUGGUCUCGUUGCGGCUUGACCGCGAAAGCGGUCUGGCUGUUAACAAGCUAGAUAUGCACCAAAUAAGACAGCUCCUCCGGGGGCUGUUUUUU / GGAAGAGCAGAGCCTTGGTCTCNNNNNNNN / NNNNNNNNGAGACCAAGGCTCTGCTCTTCC [OMNI-35 T2 sgRNA V1 ; pbPOS T2 protospacer 8N PAM library]”, the activity (1-depletion score) [1] is reported as 0.97.
Sequence “GGAAGAGCAGAGCCUUGGUCUCGUUGUGGUUUGAUGUAGAAAUACAUCUUACCACAAUAAGGCUAUAUGCCGAAGGUUUUCAACCUACCGUCUCCGCGUAUUCCGUGGAGACUUUUUU / GGAAGAGCAGAGCCTTGGTCTCNNNNNNNN / NNNNNNNNGAGACCAAGGCTCTGCTCTTCC [OMNI-34 T2 sgRNA V1 ; pbPOS T2 protospacer 8N PAM library]” has an activity (1-depletion score) [2] of 0.82.
Sequence “GGAAGAGCAGAGCCUUGGUCUCGUUUGAGAGCUUUGGAAACAAAGCGAGUGCAAAUAAGGUUUUACCGGAAUCGUCUUUAUUAAGAACCGCAUGGUGCGGAUUAUUUAGAAGCCAUUUAGAUGGCUUCUAUUUU / GGAAGAGCAGAGCCTTGGTCTCNNNNNNNN / NNNNNNNNGAGACCAAGGCTCTGCTCTTCC [OMNI-52 T2 sgRNA V1 ; pbPOS T2 protospacer 8N PAM library]” has an activity (1-depletion score) [3] of 1.
Work on “GGAAGAGCAGAGCCUUGGUCUCGUUUGAGAGUUAUGGAAACAUGACAGAGUUCAAAUAAAAAUUUAUUCAAACCGCCUAUUUAAUUAUAGGCCGCAGAUGUUCUGCACUAUGCUUGCAAGGUUGCAAGCUUUUUU / GGAAGAGCAGAGCCTTGGTCTCNNNNNNNN / NNNNNNNNGAGACCAAGGCTCTGCTCTTCC [OMNI-51 T2 sgRNA V1 ; pbPOS T2 protospacer 8N PAM library]” yielded an activity (1-depletion score) [4] of 1.
